Data reported in US20230201151A1, “FORMULATIONS AND METHODS FOR TREATING ACUTE RESPIRATORY DISTRESS SYNDROME, ASTHMA, OR ALLERGIC RHINITIS” (UNIVERSITY OF FLORIDA RESEARCH FOUNDATION, INC., priority 2020, published 2023).

Experiments:
HBEC = experiment: Barrier function in IL-13-treated differentiated HBEC, Examples 1-2; type: cell-based, human; conditions: IL-13 20 ng/mL
Experimental: (§1) Experimental design: IL-13 treatment with 20 ng/mL media for 4 and 14 days. Ussing chamber experiment in Basic Ringer (5 mM glucose in basolateral side).
To investigate the importance of ENaC during inflammation and explore how its activity is modulated during the evolution of ARDS, the present inventors used primary cultures of human bronchial epithelial cells (HBEC) harvested from normal human lungs, which had been differentiated in vitro in an air-media interphase (air on the apical side and media on the basolateral side) for 30 days. Differentiated HBEC were used for electrophysiology experiments to evaluate the effect of IL-13 on these cells. […] Similarly, IL-13 (20 ng/mL) caused a maximum reduction in barrier function on day 8 of exposure.

ENaC = target: T1, ENaC (Homo sapiens, UniProt P37088+P51168+P51170); experiment: ENaC current (benzamil-sensitive current) in IL-13-treated differentiated HBEC, Examples 1-2; type: cell-based
T1 construct: primary cultures of human bronchial epithelial cells (HBEC) harvested from normal human lungs; endogenous in cells; host or cells: primary human bronchial epithelial cells (HBEC) from donor lungs, differentiated at an air-liquid interface
T1 sequence (P37088 1-669): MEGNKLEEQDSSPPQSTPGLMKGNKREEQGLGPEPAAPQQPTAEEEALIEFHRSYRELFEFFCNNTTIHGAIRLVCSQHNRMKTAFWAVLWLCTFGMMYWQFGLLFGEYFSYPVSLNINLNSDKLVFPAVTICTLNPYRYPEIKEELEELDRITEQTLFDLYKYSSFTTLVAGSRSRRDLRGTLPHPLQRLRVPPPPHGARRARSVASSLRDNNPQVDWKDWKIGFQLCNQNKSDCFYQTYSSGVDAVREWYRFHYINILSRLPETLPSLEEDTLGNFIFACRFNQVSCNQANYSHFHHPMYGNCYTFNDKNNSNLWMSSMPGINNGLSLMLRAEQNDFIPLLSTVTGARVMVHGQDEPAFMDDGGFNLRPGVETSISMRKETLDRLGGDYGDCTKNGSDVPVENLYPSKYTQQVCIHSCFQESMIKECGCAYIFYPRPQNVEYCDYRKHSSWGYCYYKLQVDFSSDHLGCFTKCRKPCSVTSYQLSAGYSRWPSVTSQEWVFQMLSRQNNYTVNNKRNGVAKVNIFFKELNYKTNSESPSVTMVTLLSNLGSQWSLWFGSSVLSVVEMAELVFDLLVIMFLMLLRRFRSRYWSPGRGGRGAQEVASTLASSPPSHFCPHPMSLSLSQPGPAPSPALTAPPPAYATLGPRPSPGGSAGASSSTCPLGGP
T1 sequence (P51168 1-640): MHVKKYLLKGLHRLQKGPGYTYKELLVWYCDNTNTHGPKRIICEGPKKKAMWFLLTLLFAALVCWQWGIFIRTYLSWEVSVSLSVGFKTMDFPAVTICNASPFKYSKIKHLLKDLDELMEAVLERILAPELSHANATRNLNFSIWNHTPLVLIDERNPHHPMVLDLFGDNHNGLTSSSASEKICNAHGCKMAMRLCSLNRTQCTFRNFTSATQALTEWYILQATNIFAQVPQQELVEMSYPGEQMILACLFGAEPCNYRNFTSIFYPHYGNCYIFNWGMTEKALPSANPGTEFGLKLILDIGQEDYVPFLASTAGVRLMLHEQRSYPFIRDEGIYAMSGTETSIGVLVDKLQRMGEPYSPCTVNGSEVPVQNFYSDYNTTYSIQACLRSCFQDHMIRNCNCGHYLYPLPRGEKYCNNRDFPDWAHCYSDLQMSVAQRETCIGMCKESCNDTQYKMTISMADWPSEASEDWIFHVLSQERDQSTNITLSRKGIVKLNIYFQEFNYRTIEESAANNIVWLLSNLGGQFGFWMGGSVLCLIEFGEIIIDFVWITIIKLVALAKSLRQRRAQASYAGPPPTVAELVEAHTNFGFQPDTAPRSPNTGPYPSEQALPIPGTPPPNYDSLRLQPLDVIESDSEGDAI
T1 sequence (P51170 1-649): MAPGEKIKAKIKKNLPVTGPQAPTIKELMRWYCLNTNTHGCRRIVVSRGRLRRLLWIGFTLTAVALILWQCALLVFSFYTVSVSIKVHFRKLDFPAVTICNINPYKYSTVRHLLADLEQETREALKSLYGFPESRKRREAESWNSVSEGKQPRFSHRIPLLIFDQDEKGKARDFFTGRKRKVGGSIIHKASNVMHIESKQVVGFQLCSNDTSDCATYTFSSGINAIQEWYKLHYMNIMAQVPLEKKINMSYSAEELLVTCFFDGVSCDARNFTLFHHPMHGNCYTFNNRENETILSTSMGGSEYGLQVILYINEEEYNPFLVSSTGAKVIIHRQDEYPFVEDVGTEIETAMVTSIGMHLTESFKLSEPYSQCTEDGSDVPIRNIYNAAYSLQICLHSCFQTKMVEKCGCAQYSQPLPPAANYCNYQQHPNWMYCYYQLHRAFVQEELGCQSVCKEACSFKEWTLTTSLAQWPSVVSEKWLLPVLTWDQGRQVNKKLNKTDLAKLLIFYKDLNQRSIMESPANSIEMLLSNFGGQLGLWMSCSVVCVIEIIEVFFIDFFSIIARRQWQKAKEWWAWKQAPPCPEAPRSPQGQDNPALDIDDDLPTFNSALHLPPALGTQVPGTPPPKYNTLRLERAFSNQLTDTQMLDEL
Experimental: IL-13: abcam (#ab9577); Stock solution: 10 μg/mL water; 20 ng=2 μL Stock/mL media Media change with IL-13 every other day
as §1
In some embodiments, experimental studies called for determination of: • Baseline values (30 min) • Presence or absence of 6 μM Benzamil (on apical side) (15 min) • Presence or absence of 20 μM CFTRinh 172 (on apical and basolateral sides) (15 min) • Presence or absence 10 μM CaCCinh AO1 (on apical and basolateral sides) (10 min) • Presence or absence of 20 μM Bumetanide (on basolateral side) (15 min)
For Day 0 analysis: • IL-13 treatment: 0 ng/mL media • Ussing chamber experiment in basic ringer or amino acid (AA) formulations. • In addition, S side added 5 mM Glucose
Treatment for 4 days or 14 days analysis: • IL-13 treatment: 20 ng/mL media • Ussing chamber experiment in basic ringer or AA formulations. • In addition, S side added 5 mM Glucose
In some embodiments, the day 4 and day 14 experimental studies called for determination of: • Baseline values (30 min) • Presence or absence of 6 μM Benzamil (on mucosal side) (15 min) • Presence or absence of 20 μM Bumetanide (on serosal side) (15 min) • Presence or absence of 20 μM CFTRinh 172 (on mucosal and serosal sides) (15 min) […]

Substance: IL-13: Th2 cytokine (Abcam) added to HBEC culture medium
- day of maximum reduction in barrier function (HBEC): 8 days
- ENaC current versus IL-13 concentration (ENaC; FIG. 2): dose-dependent reduction
- day of maximum reduction in ENaC current (ENaC; IL-13 exposure (FIG. 3)): 8 days
